From the Human Domainome abundance scans (Beltran et al. 2025) come the findings set out here.

B1: CD2-associated protein, residues 271 to 331; numbered along this chain, Q9Y5K6 (parent)
chain: KEYCRTLFAYEGTNEDELTFKEGEIIHLISKETGEAGWWRGELNGKEGVFPDNFAVQINEL

± gives the uncertainty stated by the source.

The variants in the data set derive from B1. Briefly: abundance fitness (aPCA) (normalised: wild type 0, dead -1); higher = more abundant; growth selection in yeast, the domain comes from the species named. Particulars: Homo sapiens.
For the variant KEYCRTLFAYEGTNEDELTFKEGEIIHLISKETGEAGWWRGELNGKEGVFPDNFALQINEL [V56L], the abundance fitness is -0.264 ± 0.088.

Regarding KEYCRTLFAYEGTNEDELTFKEGEIIHLISKETGEAGWWRGELNGKEGVFPDNFARQINEL [V56R], the abundance fitness was -0.161 ± 0.054. Consider KEYCRTLFAYEGTNEQELTFKEGEIIHLISKETGEAGWWRGELNGKEGVFPDNFAVQINEL [D16Q], for which the abundance fitness is -0.105 ± 0.072. Regarding KEYCRTLFAYEGTNEDELTFKEGEIIHLISKETGEAGTWRGELNGKEGVFPDNFAVQINEL [W38T], the abundance fitness was -0.404 ± 0.075.

For KEYCRTLFAYEGTNEDELTFKEGEIIHLISKETGEAGWWRGELNGKEGVFPDNFSVQINEL [A55S], the abundance fitness is -0.505 ± 0.077. Take KEYCRTLFAYEGTNEDELTFKEGEIISLISKETGEAGWWRGELNGKEGVFPDNFAVQINEL [H27S]: the abundance fitness is -0.083 ± 0.069. The figure for KEYCRTLFAYEGTNEDELTFKEGEIIVLISKETGEAGWWRGELNGKEGVFPDNFAVQINEL [H27V] is -0.03 ± 0.07; for KEYCRTLFAYEGTNEDELTFKEGEIINLISKETGEAGWWRGELNGKEGVFPDNFAVQINEL [H27N] it is -0.165 ± 0.1. The figure for KEYCRTLFAYEGTNEDELTFKEGEIIDLISKETGEAGWWRGELNGKEGVFPDNFAVQINEL [H27D] is -0.335 ± 0.16; for KEYCRTLFAEEGTNEDELTFKEGEIIHLISKETGEAGWWRGELNGKEGVFPDNFAVQINEL [Y10E] it is -0.592 ± 0.14; for KEYCRTLFAQEGTNEDELTFKEGEIIHLISKETGEAGWWRGELNGKEGVFPDNFAVQINEL [Y10Q] it is -0.439 ± 0.13. For the variant KEYCRTLFAYEGTNEDELTFKEGEIIHLISKETGEAKWWRGELNGKEGVFPDNFAVQINEL [G37K], the abundance fitness is -0.403 ± 0.097. The result for KEYCRTLFAYEGTNEDELTFKEGEIIHLISKETGEALWWRGELNGKEGVFPDNFAVQINEL [G37L] reads -0.884 ± 0.12; that for KEYCRTLYAYEGTNEDELTFKEGEIIHLISKETGEAGWWRGELNGKEGVFPDNFAVQINEL [F8Y], -0.148 ± 0.093. With KEYCRTLFAYEGTNEDELTFKEGEIIHLISKETGEAGWWRGELNGKEGVFPDRFAVQINEL [N53R], the abundance fitness was found to be 0.038 ± 0.055.

As for KEYCRTLFAYEGTNEDELTFKEGEIIHLISKETGEAGWWRGELNGKEGVFPDNFAVQINEK [L61K], the abundance fitness was found to be 0.033 ± 0.12. The figure for KEYCRTLFAYEGTNEDELTFKEGEIIHLISKETGEAGWWRGELNGKEGVFPDNFAVQINER [L61R] is -0.049 ± 0.064; for KEYCRTLFAYEGTNEDELTFKEGEIIHLISKETGEAGWWRGELNGKEGVFPDNFAVQINEV [L61V] it is 0.02 ± 0.13. Turning to KEYCRTLFAYEGTNEDELTFKEGEIIHLISKETGEAGWWRGELNGKEGNFPDNFAVQINEL [V49N], the abundance fitness is -0.099 ± 0.11.

On to KEYCRTLFAYEGTNEDELTFKEGEIIHLISKETGEAGWWRGELNGKEGKFPDNFAVQINEL [V49K], for which the abundance fitness worked out at 0.003 ± 0.089.

With KEYCRTLFAYESTNEDELTFKEGEIIHLISKETGEAGWWRGELNGKEGVFPDNFAVQINEL [G12S], the abundance fitness was -0.113 ± 0.055. Consider KEYCRTLFAYEGTYEDELTFKEGEIIHLISKETGEAGWWRGELNGKEGVFPDNFAVQINEL [N14Y], for which the abundance fitness is -0.38 ± 0.14. With KEYCRTLFAYEGTNEDELTFKEGEIIHLISKETGEAGWWRGELNGKEGVFPDNFAVQPNEL [I58P], the abundance fitness was -0.431 ± 0.11.

On to KEYCRTLFAYEGTNEDELTFKEGEIIHLISKETGEAGWWRGELNGKEGVFPDNFAVQLNEL [I58L], for which the abundance fitness was -0.026 ± 0.052. Turning to KEYCRTLFAYEGTNEDELTFKEGEIPHLISKETGEAGWWRGELNGKEGVFPDNFAVQINEL [I26P], the abundance fitness was -0.803 ± 0.14. KEYCRTLFAYEGFNEDELTFKEGEIIHLISKETGEAGWWRGELNGKEGVFPDNFAVQINEL [T13F]: the abundance fitness was -0.416 ± 0.1. The figure for KEYCRTLFAYEGNNEDELTFKEGEIIHLISKETGEAGWWRGELNGKEGVFPDNFAVQINEL [T13N] is -0.078 ± 0.093; for KEYCRTLFAYEGLNEDELTFKEGEIIHLISKETGEAGWWRGELNGKEGVFPDNFAVQINEL [T13L] it is -0.082 ± 0.05. Regarding KEYCRTLFAYEGTNEDELTFKEGEIIHLISKEPGEAGWWRGELNGKEGVFPDNFAVQINEL [T33P], the abundance fitness is -0.242 ± 0.083. Regarding KEYCRTLFAYEGTNEDELTFKEGEIIHLISKEEGEAGWWRGELNGKEGVFPDNFAVQINEL [T33E], the abundance fitness was -0.471 ± 0.085. The figure for KEYCRTLFAYEGTNEDELTFKEGEIIHLISKELGEAGWWRGELNGKEGVFPDNFAVQINEL [T33L] is -0.349 ± 0.061; for KEYCRTLFAYEGTNEDELTFKEGEIIHLISKETGEAGWWRGELNGKEGVFQDNFAVQINEL [P51Q] it is -0.137 ± 0.1; for KEYCRTLFAYEGTNEDELTTKEGEIIHLISKETGEAGWWRGELNGKEGVFPDNFAVQINEL [F20T] it is -0.854 ± 0.15. Turning to KEYCRTLFAYEGTNEDELTLKEGEIIHLISKETGEAGWWRGELNGKEGVFPDNFAVQINEL [F20L], the abundance fitness was -0.709 ± 0.078.

Consider KEYCRTLFAYEGTNEDELTYKEGEIIHLISKETGEAGWWRGELNGKEGVFPDNFAVQINEL [F20Y], for which the abundance fitness was -0.713 ± 0.14. As to KEYCRTLFAYEGTNEDELTCKEGEIIHLISKETGEAGWWRGELNGKEGVFPDNFAVQINEL [F20C], the abundance fitness was -0.793 ± 0.13. In the case of KEGCRTLFAYEGTNEDELTFKEGEIIHLISKETGEAGWWRGELNGKEGVFPDNFAVQINEL [Y3G], the abundance fitness is -0.611 ± 0.14. As for KEYCRTLFAYEGTNEDELTFKEGEIIHLKSKETGEAGWWRGELNGKEGVFPDNFAVQINEL [I29K], the abundance fitness was -0.26 ± 0.079. Regarding KEYCRTLFAYEGTNEDELTFKEGEIIHLISKETGEAGWWRGELNGKEGVSPDNFAVQINEL [F50S], the abundance fitness was -0.818 ± 0.11.

With KEYCRTLFAYEGTNEDELTFKEGEIIHLISKETGEAGWWRGELNGKEGVAPDNFAVQINEL [F50A], the abundance fitness was -0.539 ± 0.082.

With KEYCRTLFAYEGTNEDELTFKEGEIIHLISKETGEAGWWRGELNGKEGVCPDNFAVQINEL [F50C], the abundance fitness was -0.516 ± 0.16. The result for KEYCRTLFAYEGTNEDELTFKEGEIIHLISKETGEAGWFRGELNGKEGVFPDNFAVQINEL [W39F] reads -0.513 ± 0.09.

For KEYCRTLFAYEGTNEDELTFKEGEIIHLISKETGEAGWTRGELNGKEGVFPDNFAVQINEL [W39T], the abundance fitness is -0.696 ± 0.1.
